Target: rhinovirus C15 virus (recombinant RV-C isolate C15, sucrose purified) (rhinovirus C15)
Assay: HeLa-expressed protein recovered by α-His IP, denatured and refolded, reacted with C15 virus, α-His IP, Western blot

B1: pHL-FLAG-CDHR3-His EC1-3 (1-345), HeLa-expressed (receptor)
chain: DYKDDDDKLHLILLPATGNVAENSPPGTSVHKFSVKLSASLSPVIPGFPQIVNSNPLTEAFRVNWLSGTYFEVVTTGMEQLDFETGPNIFDLQIYVKDEVGVTDLQVLTVQVTDVNEPPQFQGNLAEGLHLYIVERANPGFIYQVEAFDPEDTSRNIPLSYFLISPPKSFRMSANGTLFSTTELDFEAGHRSFHLIVEVRDSGGLKASTELQVNIVNLNDEVPRFTSPTRVYTVLEELSPGTIVANITAEDPDDEGFPSHLLYSITTVSKYFMINQLTGTIQVAQRIDRDAGELRQNPTISLEVLVKDRPYGGQENRIQITFIVEDVNDNPATCHHHHHH
  Binding % after refolding, relative to the same protein not refolded: 213%
